Patent US20200392225A1 (Novartis, published 2020)
Changes are numbered by the printed parent chain. Blank lines part the entries; values can stand above or below the binder they belong to.

What was measured:
[1] = biological target: T1, human NPR1 expressed on CHO-K1 cells (human, UniProt P16066 33-1061); assay: cell-based or functional assay
T1 sequence: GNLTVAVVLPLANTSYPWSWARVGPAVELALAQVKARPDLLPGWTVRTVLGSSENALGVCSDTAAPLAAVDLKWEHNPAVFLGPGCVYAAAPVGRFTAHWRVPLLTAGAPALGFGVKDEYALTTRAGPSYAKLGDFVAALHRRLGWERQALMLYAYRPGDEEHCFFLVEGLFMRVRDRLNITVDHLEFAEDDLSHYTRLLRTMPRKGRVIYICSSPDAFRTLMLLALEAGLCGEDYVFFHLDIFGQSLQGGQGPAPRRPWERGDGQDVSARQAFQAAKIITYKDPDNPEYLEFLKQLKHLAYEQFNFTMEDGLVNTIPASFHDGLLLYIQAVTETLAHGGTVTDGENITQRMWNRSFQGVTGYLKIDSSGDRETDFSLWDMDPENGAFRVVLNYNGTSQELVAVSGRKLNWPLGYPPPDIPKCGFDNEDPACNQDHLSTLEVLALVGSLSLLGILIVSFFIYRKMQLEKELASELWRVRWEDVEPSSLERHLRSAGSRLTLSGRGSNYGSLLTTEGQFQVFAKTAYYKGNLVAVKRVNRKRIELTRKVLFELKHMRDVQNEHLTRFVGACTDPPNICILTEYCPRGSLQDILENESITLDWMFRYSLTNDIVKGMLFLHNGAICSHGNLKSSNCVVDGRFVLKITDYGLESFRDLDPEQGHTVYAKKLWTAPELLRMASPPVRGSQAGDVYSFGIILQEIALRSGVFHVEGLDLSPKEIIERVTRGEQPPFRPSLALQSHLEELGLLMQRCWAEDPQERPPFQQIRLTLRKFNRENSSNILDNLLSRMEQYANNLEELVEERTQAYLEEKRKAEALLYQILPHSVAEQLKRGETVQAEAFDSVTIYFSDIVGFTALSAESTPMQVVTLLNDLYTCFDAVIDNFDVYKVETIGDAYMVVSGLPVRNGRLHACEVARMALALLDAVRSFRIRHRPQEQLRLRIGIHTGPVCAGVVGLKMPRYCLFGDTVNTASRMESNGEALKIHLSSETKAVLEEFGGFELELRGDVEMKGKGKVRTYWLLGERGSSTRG

[2] = biological target: T1, human NPR1 expressed on CHO-K1 cells; assay: cell-based or functional assay; remark: listed apart in the source

B3: YY07 FabCys (Fab, V domains shown)
VH: EVQLVQSGAEVKKPGESLKISCKGSGYSFTSYWISWVRQMPGKGLEWMGIIYPGTSYTRYSPSFQGQVTISADKSISTAYLQWSSLKASDTAMYYCARGSLPGLLGFDHWGQGTLVTVSS
VL: QSVLTQPPSVSGAPGQRVTISCTGSSSNIGAGYDVHWYQQLPGTAPKLLIYGNSNRPNGVPDRFSGSKSGTSASLAITGLQAEDEADYYCQSYDSPTSSSVFGGGTKLTVL
- cGMP conc [nM] at 1 uM FabCys, +0.075 nM ANP [2]: 88 nM
- cGMP conc [nM] at 1 uM FabCys, without ANP [2]: 77 nM

B4: YY05 FabCys (Fab, V domains shown)
VH: B3 VH with S100A, L101V, P102A, L104Q
VL: B3 VL with N58S, D94Y, S95T, P96S, T97S, S98H, S99G, S100P
- cGMP conc [nM] at 1 uM FabCys, +0.075 nM ANP [2]: 227 nM
- cGMP conc [nM] at 1 uM FabCys, without ANP [2]: 207 nM

B5: YY01 FabCys (Fab, V domains shown)
VH: EVQLVESGGGLVQPGGSLRLSCAASGFTFSSYWISWVRQAPGKGLEWVANIKQSGSETYYVESVKGRFTISRDNAKNSLYLQMNSLRAEDTAVYYCARSLRRRSTEHAGFDVWGQGTLVTVSS
VL: DIQMTQSPSSLSASVGDRVTITCRASQGISNYLAWYQQKPGKVPKLLIYAASTLQSGVPSRFSGSGSGTDFTLTISSLQPEDVATYYCQQADKFPYTFGQGTKVEIK
- cGMP conc [nM] at 1 uM FabCys, +0.075 nM ANP [2]: 46 nM
- cGMP conc [nM] at 1 uM FabCys, without ANP [2]: 15 nM

B6: YY04 FabCys (Fab, V domains shown)
VH: EVQLVESGGGLVKPGGSLRLSCAASGFTFSNYWISWVRQAPGKGLEWVGRIKSKTYGGTTDYAEPVKGRFTISRDDSKNTLYLQMNSLKTEDTAVYYCAREKYSIRARGHGDYGFDVWGQGTLVTVSS
VL: B5 VL with A91G, D92Y, K93H, F94A, Y96F
- cGMP conc [nM] at 1 uM FabCys, +0.075 nM ANP [2]: 67 nM
- cGMP conc [nM] at 1 uM FabCys, without ANP [2]: 18 nM

B7: WW03 FabCys (Fab, V domains shown)
VH: QVQLLESGGGLVQPGGSLRLSCAASGFTFSSYWMNWVRQAPGKGLEWVSAISSDGSYTYYADSVKGRFTISRDNSKNTLYLQMNSLRAEDTAVYYCARDRYSMIYSYGAGAFDYWGQGTLVTVSS
VL: B5 VL with N31S, V43A, A50T, V83F, Q89M, A91S, D92Y, K93E, F94K, Y96R
- cGMP conc [nM] at 2 uM FabCys, +0.075 nM ANP [1]: 108 nM
- cGMP conc [nM] at 2 uM FabCys, without ANP [1]: 32 nM

B8: YY06 FabCys (Fab, V domains shown)
VH: EVQLLESGGGLVQPGGSLRLSCAASGFTFSSYAISWVRQAPGKGLEWVSAISGSGGSTYYAESVKGRFTISRDNSKNTLYLQMNSLRAEDTAVYYCARPYLGDRRSYGFDHWGQGTLVTVSS
VL: QSALTQPASVSGSPGQSITISCTGTSSDVGSYNLVSWYQQHPGKAPKLMIYEGSKRPSGVSNRFSGSKSGNTASLTISGLQAEDEADYYCSSYGFHIVVVVFGGGTKLTVL
- cGMP conc [nM] at 1 uM FabCys, +0.075 nM ANP [2]: 75 nM
- cGMP conc [nM] at 1 uM FabCys, without ANP [2]: 20 nM

Second part, the binder after the results:

- cGMP conc [nM] at 2 uM FabCys, +0.075 nM ANP [1]: 121 nM
- cGMP conc [nM] at 2 uM FabCys, without ANP [1]: 30 nM
B1: WW01 FabCys (Fab, V domains shown)
VH: QVQLLESGGGLVQPGGSLRLSCAASGFTFNTHYIHWVRQAPGKGLEWVSSISGSGSNTYYADSVKGRFTISRDNSKNTLYLQMNSLRAEDTAVYYCARERGYVYYHMFDPWGQGTLVTVSS
VL: DIVLTQSPATLSLSPGERATLSCRASQSITRNYLAWYQQKPGQAPRLLIYGASSRATGIPARFSGSGSGTDFTLTISSLEPEDFAVYYCQQHSMYPRTFGQGTKVEIK

- cGMP conc [nM] at 2 uM FabCys, +0.075 nM ANP [1]: 251 nM
- cGMP conc [nM] at 2 uM FabCys, without ANP [1]: 281 nM
B2: WW06 FabCys (Fab, V domains shown)
VH: QVQLVQSGAEVKKPGESLKISCKGSGYSFTSYWIAWVRQMPGKGLEWMGRIDPDNSYTRYSPSFQGQVTISADKSISTAYLQWSSLKASDTAMYYCARWLSPGYALGEQPAGMDHWGQGTLVTVSS
VL: DIVLTQPPSVSGAPGQRVTISCTGSSSNIGAGYAVHWYQQLPGTAPKLLIYSNNKRPSGVPDRFSGSKSGTSASLAITGLQAEDEADYYCQSYDLQKSSRVFGGGTKLTVL
